The supplement of paper PMC10567573

B1: SCARA5 (parent)
chain: VTEDLRLKDWEHSIALRNISLAKG
B2: KRT18 (parent)
chain: KSQDLAKIMADIRAQYDELARKNR

Variants of: B1
Experiment: protein stability index of a GFP-peptide fusion (GPS, HEK-293T) (PSI 1-6); higher = more stable
Conditions: c terminus: a fixed tail appended
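Further: lentivirally expressed fusions sorted by FACS into six bins by GFP to DsRed ratio, PSI derived from sequencing read proportions per bin multiplied by bin number.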

Protein stability index: each site, then its substitutions
G24: W 2.39, F 2.49, V 2.26, M 2.95, Q 3.49, K 3.65, T 3.43, A 3.4, P 3.09, D 4.08, C 2.83, Y 3.14, S 3.31, I 2.42, N 3.06, L 2.04, R 3.46, E 4.13, H 3.3
K23: N 3.48, T 2.85, V 2.29, S 3.3, Q 3.09, P 3.44, Y 1.64, R 2.96, W 2.22

Variants of: B2
Experiment: as above
Conditions: c terminus: a fixed tail appended

Protein stability index, by site and new letter:
D11: A 1.86, G 2.12, K 1.8, N 2.84, F 1.8, M 2.02, V 2.14, P 3.56, E 2.14, C 1.73, I 1.88, Y 1.7, L 1.52, T 2.02, S 2.21, H 2.71, R 2.85, W 1.88, Q 2.96
S2: L 1.73, N 2.41, P 2.43, Y 2.04, F 1.84, A 2.2, M 2.04, C 2.14, I 2.11, D 2.85, T 2.7, V 1.9, K 3.06, H 2.63, E 3.02, R 2.56, Q 2.46, G 2.59, W 1.86
R13: P 4.12, T 2.78, V 2.42, L 2.3, C 2.06, G 2.8, K 2.92, W 2.79, Q 2.85, Y 1.75, D 4.35, A 2.47, H 2.53, S 2.73, F 1.93, E 3.75, N 3.62, I 1.92, M 1.83
D4: V 1.61, T 1.76, S 2.38, K 1.98, P 2.68, C 1.64, W 2.04, N 2.6, I 2.1, R 2.68, F 2.25, L 1.72, Q 2.42, M 1.99, E 2.5, G 3.18, Y 1.88, H 3.03, A 2.13
I12: N 4.26, H 3.55, T 4.07, F 3.03, V 3.28, Q 4.41, G 4.45, E 5.46, S 4.36, D 4.77, R 3.74, L 2.65, K 4.45, M 4.04, C 3.23, Y 3.55, A 4, P 4.56, W 1.88
Q15: D 3.49, R 2.6, K 2.4, M 2.14, P 3.84, F 2.34, T 2.24, Y 2.16, C 2.37, N 3, I 1.96, L 1.9, S 2.57, V 2.06, E 2.01, G 3.43, H 1.97, W 2.46, A 2.06
M9: S 3.89, D 4.72, E 4.63, A 3.71, F 2.77, V 2.73, I 2.03, N 4.11, W 2.38, Y 3.08, C 3.14, L 2.23, G 4.12, R 3.8, T 3.66, H 3.68, P 4.67, Q 3.64, K 3.8
A14: I 3.21, Y 3.27, T 2.58, Q 2.14, N 2.73, E 2.89, R 2.71, M 2.67, S 3.63, G 3.39, K 2.4, F 2.74, P 3.66, W 1.97, V 2.68, D 2.8, C 3.05, H 3.16, L 2.73
A10: G 3.81, H 2.75, T 3.02, P 4.14, Y 2.51, N 3.09, K 2.91, C 2.91, E 3.18, R 2.4, S 2.84, M 2.3, I 2.73, D 2.57, W 2.54, V 3.23, F 2.41, Q 2.89, L 2.68
I8: G 4.54, P 4.5, E 4.17, C 3.37, S 4.34, R 3.35, A 3.06, Y 3.23, N 3.86, L 3.13, K 3.79, T 3.27, H 3.8, W 2.4, V 2.99, F 1.64, Q 4.1, M 3.42, D 4.13
Q3: A 2.31, E 2.89, P 2.75, G 2.72, D 3.09, V 2.34, R 2.57, W 1.71, S 2.69, N 3.25, K 2.37, Y 1.88, C 2.02, I 2.35, M 2.41, F 2.46, L 2.49, T 2.76, H 2.13
L5: M 2.99, K 3.75, W 2.62, T 3.51, P 3.59, F 2.45, Y 2.19, Q 4.06, S 4.1, E 3.94, H 3.83, A 3.72, I 2.38, R 3.83, N 4.26, V 3.24, D 4.16, G 4.49, C 3.02
Y16: I 3.08, D 4.38, P 4.47, A 4.24, G 3.28, M 3.31, N 4.13, S 3.88, Q 3.89, L 3.65, E 4.37, V 3.58, K 3.93, R 3.79, H 3.32, T 3.9, W 2.67, C 3.82, F 2.83
K7: Q 2.43, L 2.37, P 3.88, S 2.46, M 2.48, F 1.9, N 2.86, H 2.73, R 2.5, T 2.67, A 2.41, W 2.14, E 2.47, I 2.16, G 3.14, Y 1.86, D 2.76, V 3.32, C 2.63
K1: E 2.41, F 3.1, T 2.58, V 2.71, P 3.03, D 2.05, Y 2.2, N 2.6, S 2.58, G 2.83, R 2.62, L 2.88, I 2.91, H 2.58, Q 2.9, M 2.81, W 2.28, A 2.58, C 2.51
D17: C 1.96, A 2.54
A6: K 2.28, S 3.04, F 2.17, H 2.71, I 2.01, P 3.61, Y 2.33, Q 3.14, E 2.78, R 2.54, T 2.94, W 1.98, D 2.8, N 3.01, C 2.66, V 2.29, G 3.31, M 2.33, L 2.65
